Residue numbers refer to the chain shown, from its start.
B1: anti-LRP6 monoclonal antibody 135.16 (antibody, V domains shown)
VH: QVQLQQSGAELVKPGASVKMSCKAFGYTFTSYPIEWMKQNHGKSLEWIGNFHPYNDNTKYNEKFKGKAKLTVEKSSSTVYLELSRSTSDDSAVYYCARGYSGNYFSAMDYWGQGTSVTVSS
VL: DIVMTQSQKFMSTSVGDRVSITCKASQNVRNDVAWYQQKPGQSPKSLIYLASNRHTGVPDRFTGSGSGTDFTLTISNVQSEDLADYFCLQHWNYPYTFGGGTKLEIKR
notes: Murine hybridoma mAb, protein G purified; also called mAb135.16
B2: anti-LRP6 monoclonal antibody 1470.2 (antibody, V domains shown)
VH: DVNLVESGGGLVKLGGSLKLSCAASGFTFSSFYMSWVRQTPEKRLDLVAAINTNGGSTYYSDTVKGRFTISRDNAKNTLYLQMSSLKSEDTALFYCARQPYYGGPMDFWGQGTSVTVSS
VL: DIVLTQSPATLSVTPGDSVSLSCRASQSINNNLHWYQQKSHESPRLLIKYASQSISGIPSRFSGSGSGTDFTLSINSVETEDFGMYFCQQSNNWPLTFGAGTKLEL
notes: Murine hybridoma mAb, protein G purified; also called VH22/VL22
B3: anti-LRP6 monoclonal antibody 1115.3 (antibody, V domains shown)
VH: DVKLVESGGGLVKLGGSLRLSCAASGFSFSTSYMSWVRQTPEKRLELVAAINLNGGSTYYSDTVKGRFTISRDNAKNTLYLQMSSLKSEDTAFYYCASELAGYGTPFAYWGQGTLVTVSA
VL: B2 VL with R24K, N30S, A51T, S74T, S77N, N93S, L106V
notes: Murine hybridoma mAb, protein G purified; also called VH16/VL16
B4: anti-LRP6 monoclonal antibody 1213.2 (antibody, V domains shown)
VH: B2 VH with A50T, S84N, A97V, P105T, F108Y
VL: B2 VL with S18R, S91T
notes: Murine hybridoma mAb, protein G purified; also called VH17/VL17
B5: anti-LRP6 monoclonal antibody 1903.1 (antibody, V domains shown)
VH: B2 VH with S31R, D107E
VL: DIVMTQSQKFMSTSVGDRVSVTCKASQNVGTNVAWYQQKPGQSPKALIYSASYRYSGVPDRFTGSGSGSDFTLTISNVQSEDLAEYFCQQYNSYPLTFGAGTKLEL
notes: Murine hybridoma mAb, protein G purified; also called VH23/VL23
B6: anti-LRP6 monoclonal antibody 1433.8 (antibody, V domains shown)
VH: QVQLQQSGAELAKPGASVKMSCKASGYTFTSYWMHWVKQRPGQGLEWIGYINPSTGYTEYNQKFRDKATLTADKSSSTANMQLSSLTSEDSAVYYCTRTAQYYGSPRGYYAMDSWGQGTSVTVSS
VL: MTQAAFSNPVTLGTSASISCRSSKSLLHSNGITYLCWFLQKPGQSPQLLIYLMSNLASGVPDRFSSSGSGTDFTLRISRVEAEDVGVYFCAQNLDLPWTFGGGTKLEI
notes: Murine hybridoma mAb, protein G purified; also called VH21/VL21

Assays:
[1] = biological target: T1, LRP6Δ1-2 propeller domain deletion construct (human, UniProt O75581 629-1613); assay: flow cytometry on 293 cells expressing the deletion construct
T1 construct: Deletion construct of human LRP6 expressed in 293 cells
T1 sequence: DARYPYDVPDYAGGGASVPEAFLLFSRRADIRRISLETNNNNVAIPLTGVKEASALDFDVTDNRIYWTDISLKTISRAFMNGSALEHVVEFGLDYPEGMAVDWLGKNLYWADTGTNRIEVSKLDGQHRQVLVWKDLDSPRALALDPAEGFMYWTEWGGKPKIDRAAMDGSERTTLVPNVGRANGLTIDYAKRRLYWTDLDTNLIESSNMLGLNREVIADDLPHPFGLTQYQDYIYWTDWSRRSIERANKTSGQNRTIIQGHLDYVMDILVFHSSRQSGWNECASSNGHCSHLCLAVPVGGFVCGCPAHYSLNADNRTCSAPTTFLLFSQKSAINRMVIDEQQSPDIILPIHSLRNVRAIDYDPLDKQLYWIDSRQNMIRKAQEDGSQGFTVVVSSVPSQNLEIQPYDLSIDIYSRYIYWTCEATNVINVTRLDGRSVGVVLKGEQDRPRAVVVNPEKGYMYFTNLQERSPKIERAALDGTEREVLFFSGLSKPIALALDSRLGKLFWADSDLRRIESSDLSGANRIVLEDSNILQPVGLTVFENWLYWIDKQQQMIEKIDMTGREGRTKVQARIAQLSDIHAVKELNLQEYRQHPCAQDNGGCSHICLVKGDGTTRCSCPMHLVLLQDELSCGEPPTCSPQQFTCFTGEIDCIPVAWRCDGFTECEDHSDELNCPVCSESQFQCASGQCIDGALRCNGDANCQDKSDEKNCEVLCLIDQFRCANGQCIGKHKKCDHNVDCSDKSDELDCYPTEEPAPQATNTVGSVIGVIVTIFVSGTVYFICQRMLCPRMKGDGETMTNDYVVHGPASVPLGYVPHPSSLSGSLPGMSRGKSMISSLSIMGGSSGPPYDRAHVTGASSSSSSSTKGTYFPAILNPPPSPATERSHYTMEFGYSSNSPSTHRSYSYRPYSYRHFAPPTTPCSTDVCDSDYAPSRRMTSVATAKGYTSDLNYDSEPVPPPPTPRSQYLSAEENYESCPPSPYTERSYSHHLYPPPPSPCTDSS
Protocol: (§1) To identify the region of LRP6 that is recognized by LRP6 mAbs, a series of LRP6 propeller domain deletion constructs were made (SEQ ID NO: 6-15) and expressed in 293 cells. Binding of anti-LRP6 mAbs was determined by flow cytometry. […] Amino acid sequence alignments of the heavy and light chain variable domains of the anti-LRP6 mAbs disclosed herein are shown in FIGS. 4 and 5, respectively.

LRP6Δ1/4 = biological target: T2, LRP6Δ1/4; assay: FACS on 293 cells transfected with LRP6Δ1/4 [cont.]
T2 construct: also called LRP6Del1-4
T2 chain: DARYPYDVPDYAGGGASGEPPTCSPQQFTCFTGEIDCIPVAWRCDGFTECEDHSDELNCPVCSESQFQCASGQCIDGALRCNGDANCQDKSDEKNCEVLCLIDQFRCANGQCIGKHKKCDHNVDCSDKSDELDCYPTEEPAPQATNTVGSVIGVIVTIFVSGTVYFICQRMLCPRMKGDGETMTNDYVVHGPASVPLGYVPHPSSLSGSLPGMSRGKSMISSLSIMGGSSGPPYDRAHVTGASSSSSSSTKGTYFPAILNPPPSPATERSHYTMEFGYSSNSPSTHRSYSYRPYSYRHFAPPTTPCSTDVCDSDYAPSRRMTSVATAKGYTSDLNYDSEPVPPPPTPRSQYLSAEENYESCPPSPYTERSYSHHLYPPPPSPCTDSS
Protocol: as §1

[2] = biological target: T3, Human LRP6-Fc (R&D Systems), recombinant human LRP6 containing the complete extracellular domain (human, UniProt O75581 20-1370); assay: SPR (BIAcore), mAb captured on anti-mouse chip, Fc-antigen injected, 1:1 model
T3 construct: Bought protein; also called hLRP6; Fc-antigen; not shown: Fc part of the bought fusion protein
T3 sequence: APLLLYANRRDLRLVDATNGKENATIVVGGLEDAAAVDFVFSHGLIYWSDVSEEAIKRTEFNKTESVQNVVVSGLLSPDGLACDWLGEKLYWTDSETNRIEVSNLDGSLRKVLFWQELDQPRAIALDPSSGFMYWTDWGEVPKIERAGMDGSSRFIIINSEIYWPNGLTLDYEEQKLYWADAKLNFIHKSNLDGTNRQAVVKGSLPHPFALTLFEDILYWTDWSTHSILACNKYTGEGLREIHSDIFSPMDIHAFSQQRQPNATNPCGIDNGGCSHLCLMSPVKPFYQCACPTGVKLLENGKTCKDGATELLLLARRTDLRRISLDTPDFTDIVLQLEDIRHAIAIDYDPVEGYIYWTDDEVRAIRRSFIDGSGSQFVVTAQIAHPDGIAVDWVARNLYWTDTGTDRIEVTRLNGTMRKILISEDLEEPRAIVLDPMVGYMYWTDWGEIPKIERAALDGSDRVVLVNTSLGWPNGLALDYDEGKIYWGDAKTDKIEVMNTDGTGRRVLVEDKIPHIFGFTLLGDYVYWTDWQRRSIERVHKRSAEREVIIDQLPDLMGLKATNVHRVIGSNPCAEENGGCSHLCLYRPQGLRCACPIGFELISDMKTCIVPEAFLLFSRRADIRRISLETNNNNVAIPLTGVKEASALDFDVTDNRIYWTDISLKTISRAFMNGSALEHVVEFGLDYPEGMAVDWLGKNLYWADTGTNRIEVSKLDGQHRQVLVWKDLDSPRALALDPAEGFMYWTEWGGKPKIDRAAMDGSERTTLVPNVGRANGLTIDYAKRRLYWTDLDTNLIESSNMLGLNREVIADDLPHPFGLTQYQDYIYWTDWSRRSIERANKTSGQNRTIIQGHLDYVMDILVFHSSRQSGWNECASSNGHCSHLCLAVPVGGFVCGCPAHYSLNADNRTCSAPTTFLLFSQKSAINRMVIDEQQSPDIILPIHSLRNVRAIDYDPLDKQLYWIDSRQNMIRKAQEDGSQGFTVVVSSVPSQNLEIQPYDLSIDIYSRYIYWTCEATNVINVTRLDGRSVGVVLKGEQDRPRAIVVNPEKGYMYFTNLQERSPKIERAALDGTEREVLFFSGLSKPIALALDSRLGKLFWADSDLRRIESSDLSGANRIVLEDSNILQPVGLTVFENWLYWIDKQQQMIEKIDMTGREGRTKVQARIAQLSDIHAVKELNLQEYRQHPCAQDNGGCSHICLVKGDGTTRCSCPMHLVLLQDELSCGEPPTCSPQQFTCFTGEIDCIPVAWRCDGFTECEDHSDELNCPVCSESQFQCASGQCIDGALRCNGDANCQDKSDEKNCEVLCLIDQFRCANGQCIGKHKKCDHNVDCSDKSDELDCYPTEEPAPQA
Protocol: (§2) Kinetic rate constants (kₐ and kd) were determined using surface plasmon resonance, and affinities (KD) were then calculated from the rate constants (kd/kₐ). Surface plasmon resonance was carried out on a BIAcore system (Biacore International AB, Uppsala, Sweden). Each murine anti-LRP6 mAb sample was diluted 100 fold and captured onto an anti-mouse sensor chip surface. The running buffer contained 10 mM HEPES, 150 mM NaCl, 0.005% Tween-20 and 0.1 mg/ml BSA. Following the capturing step, the Fc-antigen was injected at 45 nM as the highest concentration in a 3-fold dilution series. The association and dissociation phases were monitored for 8 and 60 minutes, respectively. The antigen response data were fit into a 1:1 interaction model.

[3] = biological target: T3, Human LRP6-Fc (R&D Systems), …; assay: SPR (BIAcore): mAb captured on an anti-mouse chip, Fc-antigen injected from 45 nM in 3-fold dilutions, 1:1 fit [cont., panel R]
Protocol: as §2

[4] = biological target: T3, Human LRP6-Fc (R&D Systems), …; assay: SPR (BIAcore): mAb captured on an anti-mouse chip, Fc-antigen injected from 45 nM in 3-fold dilutions, 1:1 fit. The sheet prints no unit for ka; the unit is from the head of Table 4. [cont., panel R]
Protocol: as §2

[5] = biological target: T3, Human LRP6-Fc (R&D Systems), …; assay: SPR (BIAcore): mAb captured on an anti-mouse chip, Fc-antigen injected from 45 nM in 3-fold dilutions, 1:1 fit. The sheet prints no unit for kd; the unit is from the head of Table 4. [cont., panel R]
Protocol: as §2

| Binder | binding result [1] | binding result (LRP6Δ1/4) | Kd [2] | koff [2] | kon [2] | Kd [3] | kon [4] | koff [5] |
| --- | --- | --- | --- | --- | --- | --- | --- | --- |
| B1 | no binding | no binding (tested: not stated) | 0.73 nM | 1.9e-05 s⁻¹ | 26300 M⁻¹ s⁻¹ |  |  |  |
| B2 |  |  |  |  |  | 3.51 nM | 20800 M⁻¹ s⁻¹ | 7.3e-05 s⁻¹ |
| B3 |  |  | 1.45 nM | 5.34e-05 s⁻¹ | 36800 M⁻¹ s⁻¹ |  |  |  |
| B4 |  |  | 1.07 nM | 6.3e-05 s⁻¹ | 58800 M⁻¹ s⁻¹ |  |  |  |
| B5 |  |  | 2.79 nM | 9.4e-05 s⁻¹ | 33700 M⁻¹ s⁻¹ |  |  |  |
| B6 |  |  | 1.68 nM | 7.7e-05 s⁻¹ | 45600 M⁻¹ s⁻¹ |  |  |  |

Source: patent US20140220040A1 (ARCA BIOPHARMA, published 2014)
